Test results from patent publication US20070054271A1.

Columns and labels:
[1] = biological target: putative CXCL14 receptor (CXCL14-binding cell surface protein(s)) on breast epithelial and breast cancer cells; assay: Scatchard analysis of AP-CXCL14 binding to MDA-MB-231 cells in suspension, bound AP activity; low affinity site
[2] = biological target: putative CXCL14 receptor (CXCL14-binding cell surface protein(s)) on breast epithelial and breast cancer cells; assay: Scatchard analysis of AP-CXCL14 binding to MDA-MB-231 cells in suspension, bound AP activity; high affinity site

Kd [1]: 567 nM
Kd [2]: 61 nM
Substance: alkaline phosphatase-CXCL14 (AP-CXCL14) fusion protein, AP located N-terminal of the CXCL14 (from UniProt O95715 35-111) (ligand)
